Read-outs that look alike come from different tables or passages of the source.
How the values were obtained:
[1] = biological target: MHC class II (HLA-DR1) on human LG-2 cells (human); assay: Scatchard analysis, 125I-labelled toxin on LG-2 cells; low affinity site
[2] = biological target: MHC class II (HLA-DR1) on human LG-2 cells (human); assay: Scatchard analysis, 125I-labelled toxin on LG-2 cells; high affinity site
[3] = biological target: MHC class II (HLA-DR1) on human LG-2 cells (human)
[4] = biological target: MHC class II (HLA-DR1) on human LG-2 cells (human); assay: Scatchard analysis, 125I-labelled toxin on LG-2 cells

Binder | Kd [1] [nM] | Kd [2] [nM] | Kd [3] [nM] | Kd [4] [nM]
recombinant SEA (other) SEKSEEINEKDLRKKSELQGTALGNLKQIYYYNEKAKTENKESHDQFLQHTILFKGFFTDHSWYNDLLVDFDSKDIVDKYKGKKVDLYGAYYGYQCAGGTPNKTACMYGGVTLHDNNRLTEEKKVPINLWLDGKQNTVPLETVKTNKKNVTVQELDLQARRYLQEKYNLYNSDVFDGKVQRGLIVFHTSTEPSVNYDLFGAQGQYSNTLLRIYRDNKTINSENMHIDIYLYTS | 1000 | 36 | – | –
recombinant SPE-G superantigen (mature) (other) DENLKDLKRSLRFAYNITPCDYENVEIAFVTTNSIHINTKQKRSECILYVDSIVSLGITDQFIKGDKVDVFGLPYNFSPPYVDNIYGGIVKHSNQGNKSLQFVGILNQDGKETYLPSEAVRIKKKQFTLQEFDFKIRKFLMEKYNIYDSESRYTSGSLFLATKDSKHYEVDLFNKDDKLLSRDSFFKRYKDNKIFNSEEISHFDIYLKTH | 1000 | 16 | 15 to 65 | –
recombinant SEB (other) ESQPDPKPDELHKSSKFTGLMENMKVLYDDNHVSAINVKSIDQFLYFDLIYSIKDTKLGNYDNVRVEFKNKDLADKYKDKYVDVFGANYYYQCYFSKKTNDINSHQTDKRKTCMYGGVTEHNGNQLDKYRSITVRVFEDGKNLLSFDVQTNKKKVTAQELDYLTRHYLVKNKKLYEFNNSPYETGYIKFIENENSFWYDMMPAPGDKFDQSKYLMMYNDNKMVDSKDVKIEVYLTTKKK | – | – | – | 340
recombinant TSST (other) STNDNIKDLLDWYSSGSDTFTNSEVLDNSLGSMRIKNTDGSISLIIFPSPYYSPAFTKGEKVDLNTKRTKKSQHTSEGTYIHFQISGVTNTEKLPTPIELPLKVKVHGKDSPLKYGPKFDKKQLAISTLDFEIRHQLTQIHGLYRSSDKTGGYWKITMNDGSTYQSDLSKKFEYNTEKPPINIDEIKTIEAEIN | – | – | – | 130
